The record followed here is article PMC3099712.

Assay [1] concerns the target GFP-tagged human IGFLR1 on HEK293T cells (human). Put plainly: radioligand binding.
The target of assay [2] is GFP-tagged mouse IGFLR1 on HEK293T cells (mouse). Put plainly: radioligand binding.

Sequence of FLAG-mIGFL (mouse insulin growth factor-like protein) (Q6B9Z0 24-140): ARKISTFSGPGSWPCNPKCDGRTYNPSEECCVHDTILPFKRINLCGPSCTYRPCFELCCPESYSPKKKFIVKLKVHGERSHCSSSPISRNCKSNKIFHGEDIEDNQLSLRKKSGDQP
Sequence of FLAG-IGFL1 (human insulin growth factor-like family member 1) (Q6UW32 24-110): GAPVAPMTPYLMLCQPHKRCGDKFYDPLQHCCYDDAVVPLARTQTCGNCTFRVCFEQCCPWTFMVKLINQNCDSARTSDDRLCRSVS

In turn, “FLAG-IGFL1 (human insulin growth factor-like family member 1) (from UniProt Q6UW32 24-110) (ligand)” registered a Kd in assay [1] of 310 pM.
“FLAG-mIGFL (mouse insulin growth factor-like protein) (from UniProt Q6B9Z0 24-140) (ligand)”: in assay [2], the Kd was determined as 730 pM.
